Experimental data reported in patent US6004757.

What was measured:
[1] = target: chicken pp60^v-src (chicken); assay: inhibition of transphosphorylation of acid denatured enolase (1 µM) by immobilised pp60^v-src, [γ-32P]-ATP, SDS-PAGE
[2] = target: human EGF receptor (human) (UniProt P00533)
[3] = target: chicken pp60^v-src (chicken)
[4] = target: GST-fusion construct of src

“peptide Ala-Glu-Glu-Glu-Ile-Tyr-Gly-Glu-Phe-Glu-Ala-Lys-Lys-Lys-Lys” gave a Ki [1] of 8 µM, a Km (µM) of phosphorylation of the peptide by the kinase [2] of 34 µM and a Km (µM) of phosphorylation of the peptide by the kinase [3] of 32.9 µM. For the same substance, the Km of phosphorylation of the peptide by the kinase [4] was 33 µM.
